Test results reported in publication PMC4240464 (The Febs Journal, 2013).
Like-named read-outs stand apart in the source and are kept apart here.

B1: 6His–Evasin-4 (natural protein)
chain: EVPQMTSSSAPDLEEEDDYTAYAPLTCYFTNSTLGLLAPPNCSVLCNSTTTWFNETSPNNASCLLTVDFLTQDAILQENQPYNCSVGHCDNGTCAGPPRHAQCW

Key:
Assay in all cases: SPR
6His–Evasin-4 [1] = target: B1
[2] = target: T1, Evasin-4 (untagged recombinant) (Rhipicephalus sanguineus, UniProt P0C8E9 24-127, appears to be highly glycosylated (six putative N-glycosylation sites))
T1 sequence: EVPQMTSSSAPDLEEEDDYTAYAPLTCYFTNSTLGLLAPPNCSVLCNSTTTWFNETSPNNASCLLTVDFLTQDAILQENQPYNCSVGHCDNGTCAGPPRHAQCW

6His–Evasin-4 [3] = target: B1; remark: listed apart in the source
CCL21 = target: T2, CCL21 (human, UniProt O00585 24-134)
T2 sequence: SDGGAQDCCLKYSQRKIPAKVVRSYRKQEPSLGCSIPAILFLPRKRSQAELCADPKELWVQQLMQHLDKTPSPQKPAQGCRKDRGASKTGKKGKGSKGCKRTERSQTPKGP

CCL25 = target: T3, CCL25 (human, UniProt O15444 24-150)
T3 sequence: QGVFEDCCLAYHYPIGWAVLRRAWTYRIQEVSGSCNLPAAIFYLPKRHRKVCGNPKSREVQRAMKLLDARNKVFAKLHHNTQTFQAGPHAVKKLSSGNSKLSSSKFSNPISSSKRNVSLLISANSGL

Row | Binder | Kd (6His–Evasin-4 [1]) [pM] | koff (6His–Evasin-4 [1]) [s⁻¹] | kon (6His–Evasin-4 [1]) [M⁻¹ s⁻¹] | Kd [2] [pM] | Kd (6His–Evasin-4 [3]) [pM] | Kd (CCL21) [pM] | koff (CCL21) [s⁻¹] | kon (CCL21) [M⁻¹ s⁻¹] | Kd (CCL25) [pM] | koff (CCL25) [s⁻¹] | kon (CCL25) [M⁻¹ s⁻¹]
1 | CCL1 (ligand) KSMQVPFSRCCFSFAEQEIPLRAILCYRNTSSICSNEGLIFKLKRGKEACALDTVGWVQRHRKMLRHCPSKRK | 200 | 0.00326 | 1.66e+07 | 112000 | 1810 |  |  |  |  |  | 
2 | CCL24 (ligand) VVIPSPCCMFFVSKRIPENRVVSYQLSSRSTCLKAGVIFTTKKGQQFCGDPKQEWVQRYMKNLDAKQKKASPRARAVAVKGPVQRYPGNQTTC | 410 | 0.0125 | 3.05e+07 |  | 142000 |  |  |  |  |  | 
3 | CCL26 (ligand) TRGSDISKTCCFQYSHKPLPWTWVRSYEFTSNSCSQRAVIFTTKRGKKVCTHPRKKWVQKYISLLKTPKQL | 880 | 0.00015 | 170000 |  | 11400 |  |  |  |  |  | 
4 | CCL3 (ligand) SLAADTPTACCFSYTSRQIPQNFIADYFETSSQCSKPGVIFLTKRSRQVCADPSEEWVQKYVSDLELSA | 60 | 0.00089 | 1.38e+07 | 33100 | 393 |  |  |  |  |  | 
5 | CCL5 E26A (ligand) SPYSSDTTPCCFAYIARPLPRAHIKAYFYTSGKCSNPAVVFVTRKNRQVCANPEKKWVREYINSLEMS | 90 | 0.00223 | 2.6e+07 | 194000 | 2 |  |  |  |  |  | 
6 | CCL7 (ligand) not shown | 700 | 0.00988 | 1.41e+07 |  | 45 |  |  |  |  |  | 
7 | CCL8 (ligand) QPDSVSIPITCCFNVINRKIPIQRLESYTRITNIQCPKEAVIFKTKRGKEVCADPKERWVRDSMKHLDQIFQNLKP | 250 | 0.00176 | 7.11e+06 |  | 220 |  |  |  |  |  | 
8 | CCL11 (ligand) not shown | 340 | 0.00435 | 1.29e+07 | 128000 | 69 |  |  |  |  |  | 
9 | CCL14 (ligand) TKTESSSRGPYHPSECCFTYTTYKIPRQRIMDYYETNSQCSKPGIVFITKRGHSVCTNPSDKWVQDYIKDMKEN | 140 | 0.00148 | 1.04e+07 |  |  |  |  |  |  |  | 
10 | CCL15 (ligand) QFTNDAETELMMSKLPLENPVVLNSFHFAADCCTSYISQSIPCSLMKSYFETSSECSKPGVIFLTKKGRQVCAKPSGPGVQDCMKKLKPYSI | 2310 | 0.0936 | 4.05e+07 | 132000 | 199 |  |  |  |  |  | 
11 | CCL16 (ligand) QPKVPEWVNTPSTCCLKYYEKVLPRRLVVGYRKALNCHLPAIIFVTKRNREVCTNPNDDWVQEYIKDPNLPLLPTRNLSTVKIITAKNGQPQLLNSQ | 260 | 0.00306 | 1.2e+07 |  |  |  |  |  |  |  | 
12 | CCL17 (ligand) ARGTNVGRECCLEYFKGAIPLRKLKTWYQTSEDCSRDAIVFVTVQGRAICSDPNNKRVKNAVKYLQSLERS | 610 | 0.0107 | 1.76e+07 | 126000 |  |  |  |  |  |  | 
13 | CCL18 (ligand) AQVGTNKELCCLVYTSWQIPQKFIVDYSETSPQCPKPGVILLTKRGRQICADPNKKWVQKYISDLKLNA | 30 | 0.00053 | 1.96e+07 |  | 198 |  |  |  |  |  | 
14 | CCL19 (ligand) GTNDAEDCCLSVTQKPIPGYIVRNFHYLLIKDGCRVPAVVFTTLRGRQLCAPPDQPWVERIIQRLQRTSAKMKRRSS | 140 | 0.00035 | 2.57e+06 |  |  |  |  |  |  |  | 
15 | B1 |  |  |  |  |  | 10 | 8e-05 | 1.1e+07 | 69600 | 0.00054 | 8000
16 | CCL22 (ligand) GPYGANMEDSVCCRDYVRYRLPLRVVKHFYWTSDSCPRPGVVLLTFRDKEICADPRVPWVKMILNKLSQ | 430 | 0.0038 | 8.9e+06 |  |  |  |  |  |  |  | 
17 | CCL23 (ligand) RVTKDAETEFMMSKLPLENPVLLDRFHATSADCCISYTPRSIPCSLLESYFETNSECSKPGVIFLTKKGRRFCANPSDKQVQVCMRMLKLDTRIKTRKN | 4430 | 3e-05 | 6000 | 14100 | 10800 |  |  |  |  |  | 
